This passage reports stoichiometry N results from PMC7259690.

The target of this assay is 10042.05.SOSIP trimer (recombinant HIV-1 Env trimer 10042.05 from subject VC10042, cleaved SOSIP form) (HIV-1). Description: SEC + native gel or EMSA; Superdex 200 16/600 pg SEC after lectin and ion exchange steps; fractions and final preparation on blue native PAGE; analytical SEC as QC.

Take “10042.05.SOSIP trimer (recombinant HIV-1 Env trimer 10042.05 from subject VC10042, cleaved SOSIP form) (complex)”: the stoichiometry N is 3.
